Reference: US20240400675A1 (published 2024)
Changes are numbered by the printed parent chain. Read-outs that look alike come from different tables or passages of the source. Values belong to the binder of their own block, whether it stands above or below them.

Columns and labels:
Assay in all cases: flow cytometry, HEK293E cells
[1] = molecular target: T1, CLDN6 I143V isotype (UniProt P56747 1-220)
T1 chain: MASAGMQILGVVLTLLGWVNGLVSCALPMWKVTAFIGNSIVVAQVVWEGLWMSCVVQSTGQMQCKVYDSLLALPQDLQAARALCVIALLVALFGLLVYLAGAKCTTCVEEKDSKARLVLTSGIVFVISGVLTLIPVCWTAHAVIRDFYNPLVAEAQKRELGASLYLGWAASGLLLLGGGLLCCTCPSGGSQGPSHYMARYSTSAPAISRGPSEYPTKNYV

[2] = molecular target: T2, human CLDN9 (UniProt O95484 1-217)
T2 chain: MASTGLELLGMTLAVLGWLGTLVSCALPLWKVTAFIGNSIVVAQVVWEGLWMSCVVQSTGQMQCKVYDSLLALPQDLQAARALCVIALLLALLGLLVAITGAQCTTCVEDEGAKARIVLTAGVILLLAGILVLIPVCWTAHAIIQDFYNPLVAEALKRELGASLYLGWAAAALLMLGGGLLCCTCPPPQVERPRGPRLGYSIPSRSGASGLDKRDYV

[3] = molecular target: T3, human CLDN6 (UniProt P56747 1-220)
T3 chain: T1 chain with V143I

[4] = molecular target: T4, cyno CLDN6
T4 chain: T1 chain with V143I, Q191R

[5] = molecular target: T5, mouse CLDN6 (mouse, UniProt Q9Z262 1-219)
T5 chain: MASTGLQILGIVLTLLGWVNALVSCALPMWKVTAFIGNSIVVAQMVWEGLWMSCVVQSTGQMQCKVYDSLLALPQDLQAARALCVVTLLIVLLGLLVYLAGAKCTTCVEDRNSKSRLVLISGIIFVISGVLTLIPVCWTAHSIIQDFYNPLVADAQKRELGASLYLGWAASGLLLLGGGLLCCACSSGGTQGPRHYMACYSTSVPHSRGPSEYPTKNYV

[6] = molecular target: T3, human CLDN6

EC50 [1]: 0.329 µg/mL
EC50 [2]: 6.73 µg/mL
EC50 [3]: 0.359 µg/mL
EC50 [4]: 0.316 µg/mL
EC50 [5]: 0.664 µg/mL
EC50 [6]: 0.224 µg/mL
B1: XENP34233 (C6-30_H1L1 x CD3 bsAb in the 2+1 Fab2-scFv-Fc format) (bispecific antibody)
heavy 1: QVQLVQSGAEVKKPGASVKVSCKTSGYTFTEYTMHWVRQAPGQSLEWMGGIDPNNGNTHYNQKFQGRVTITVDKSASTAYMELSSLRSEDTAVYYCARIYYFGRLYFDFWGAGTLVTVSSASTKGPSVFPLAPSSKSTSGGTAALGCLVKDYFPEPVTVSWNSGALTSGVHTFPAVLQSSGLYSLSSVVTVPSSSLGTQTYICNVNHKPSDTKVDKKVEPKSCDKTHTCPPCPAPPVAGPSVFLFPPKPKDTLMISRTPEVTCVVVDVKHEDPEVKFNWYVDGVEVHNAKTKPREEEYNSTYRVVSVLTVLHQDWLNGKEYKCKVSNKALPAPIEKTISKAKGQPREPQVYTLPPSREEMTKNQVSLTCDVSGFYPSDIAVEWESDGQPENNYKTTPPVLDSDGSFFLYSKLTVDKSRWEQGDVFSCSVMHEALHNHYTQKSLSLSPGK
heavy 2: QVQLVQSGAEVKKPGASVKVSCKTSGYTFTEYTMHWVRQAPGQSLEWMGGIDPNNGNTHYNQKFQGRVTITVDKSASTAYMELSSLRSEDTAVYYCARIYYFGRLYFDFWGAGTLVTVSSASTKGPSVFPLAPSSKSTSGGTAALGCLVKDYFPEPVTVSWNSGALTSGVHTFPAVLQSSGLYSLSSVVTVPSSSLGTQTYICNVNHKPSNTKVDKKVEPKSCGGGGSGGGGSQAVVTQEPSLTVSPGGTVTLTCGSSTGAVTTSNYANWVQQKPGKSPRGLIGGTNKRAPGVPARFSGSLLGGKAALTISGAQPEDEADYYCALWYSNHWVFGGGTKLTVLGKPGSGKPGSGKPGSGKPGSEVQLVESGGGLVQPGGSLRLSCAASGFTFSTYAMNWVRQAPGKGLEWVGRIRSKYNNYATYYADSVKGRFTISRDDSKNTLYLQMNSLRAEDTAVYYCVRHGNFGDSYVSWFAYWGQGTLVTVSSGGGGSGGGGSKTHTCPPCPAPPVAGPSVFLFPPKPKDTLMISRTPEVTCVVVDVKHEDPEVKFNWYVDGVEVHNAKTKPREEQYNSTYRVVSVLTVLHQDWLNGKEYKCKVSNKALPAPIEKTISKAKGQPREPQVYTLPPSREQMTKNQVKLTCLVKGFYPSDIAVEWESNGQPENNYKTTPPVLDSDGSFFLYSKLTVDKSRWQQGNVFSCSVMHEALHNHYTQKSLSLSPGK
light: not shown

EC50 [1]: 5.58 µg/mL
EC50 [2]: 78.8 µg/mL
EC50 [3]: 6.49 µg/mL
EC50 [4]: 5.65 µg/mL
EC50 [5]: 12 µg/mL
EC50 [6]: 3.48 µg/mL
B2: XENP34229 (C6-30_H1L1 x CD3 bsAb in the 1+1 Fab-scFv-Fc format) (bispecific antibody)
heavy: B1 heavy 1
scFv-Fc: QAVVTQEPSLTVSPGGTVTLTCGSSTGAVTTSNYANWVQQKPGKSPRGLIGGTNKRAPGVPARFSGSLLGGKAALTISGAQPEDEADYYCALWYSNHWVFGGGTKLTVLGKPGSGKPGSGKPGSGKPGSEVQLVESGGGLVQPGGSLRLSCAASGFTFSTYAMNWVRQAPGKGLEWVGRIRSKYNNYATYYADSVKGRFTISRDDSKNTLYLQMNSLRAEDTAVYYCVRHGNFGDSYVSWFAYWGQGTLVTVSSEPKSSDKTHTCPPCPAPPVAGPSVFLFPPKPKDTLMISRTPEVTCVVVDVKHEDPEVKFNWYVDGVEVHNAKTKPREEQYNSTYRVVSVLTVLHQDWLNGKEYKCKVSNKALPAPIEKTISKAKGQPREPQVYTLPPSREQMTKNQVKLTCLVKGFYPSDIAVEWESNGQPENNYKTTPPVLDSDGSFFLYSKLTVDKSRWQQGNVFSCSVMHEALHNHYTQKSLSLSPGK
light: not shown
